# Experiment: label from the status in PepcDB records
row,Sequence,protein production
1,MVRRRQTSETGLLRQLPLALLIWGLFSLMMWVPAVYALTLNDHPTSRSFFYAGILGLVVVTTISLARAGRPSRHGLLGQLAVLLSTFAVLPLFLAVPFHDALKTTSFLNAYFEMVSAITTTGAEMFPDPGRLSAPLHLWRAQVGWLGGLVMWIAASAILAPLSLGGFEVTAQGQPGRVLVGQGESVDPRGRLLRVAATLAPVYAGLTLVVAILLLAAGDSGLVAICHAMSVMATSGISPVGGLSGGASGLTGEAILFLFMFFALSRLTFSSDTAMRGHARLDQDPEFRIGLLILLGVPALLFLRHWSGAIDIASGENLTLALRALWGSLFTVMSFLSTTGFESTDWAEARQWSGLGTPGMILLGLSVIGGGVATTAGGVKLLRVYALYLNGTRELQRLVHPSSVSSATGRNRRIQRGGAFIAWVFFMLFAISLAAIALALAAAGSDFETAMVLSIATLSTTGPLIEIGAQEPIRLIEMPAAAKLILSGAMIIGRLETLAFIALITPALWRN,failed
2,MVRVRFAPSPTGFLHVGGARTALFNFLFARKEKGKFILRIEDTDLERSEREYEEKLMESLRWLGLLWDEGPDVGGDHGPYRQSERVEIYREHAERLVKEGKAYYVYAYPEEIEEMREKLLSEGKAPHYSQEMFEKFDTPERRREYEEKGLRPAVFFKMPRKDYVLNDVVKGEVVFKTGAIGDFVIMRSNGLPTYNFACVVDDMLMEITHVIRGDDHLSNTLRQLALYEAFEKAPPVFAHVSTILGPDGKKLSKRHGATSVEAFRDMGYLPEALVNYLALLGWSHPEGKELLTLEELISSFSLDRLSPNPAIFDPQKLKWMNGYYLRNMPIEKLAELAKPFFEKAGIKIIDEEYFKKVLEITKERVEVLSEFPEESRFFFEDPAPVEIPEEMKEVFSQLKEELQNVRWTMEEITPVFKKVLKQHGVKPKEFYMTLRRVLTGREEGPELVNIIPLLGKEIFLRRIERSLGG,not failed
3,MVSKECCRNEIRAAIRQLSDRCLYSAAKWAGEQLVGIEQDPSNFTPANTRFQRGSSSIRRRFSTNESISTPLPSVGFSQAATPLPEEDEAIDGDIYLLAKSYFDCREYRRASHMLRDQVSKKSLFLRYYALYLAGEKRKEEEMIELEGPLGKSDAINRELVSLERDLSALRRTGAIDSFGLYLYGVVLKEKGNESLARASLVESVNSYPWNWSAWSELQSLCTSIEILNSLNLNNHWMKEFFLGNAYQELRMHTESLAKYEYLQGIFSFSNYIQAQTAKAQYSLREFDQVEIMFEELLRNDPYRVEDMDLYSNVLYAKEACAALSYLAHKVFLTDKYRPESCCIIGNYYSLKGQHEKAVMYFRRALKLNKKYLSAWTLMGHEYVEMKNTPAAIDAYRRAVDINPTDYRAWYGLGQAYEMMGMPFYALHYFRKSIFFLPNDSRLWIAMAKCYQTEQLYMLEEAIKCYKRAVNCTDTEGIALNQLAKLHQKLGRNEEAAYYFEKDLERMDAEGLEGPNMFEALVFLATHFKNHKKFEEAEVYCTRLLDYSGPEKEKAKSLLRGIRMAQTGFPSMDLEHFPI,failed
4,MVSLPRLASLLTTRLATLKPALKPATHLASLGAQVIAELVPGIRMSPNRRRILPANMGAGFIGAEIAMWWALSPSLLPKPWWVTAANLAVLQAVGHAAATGIHSILPRTNRRVSRKIYNATHIATGAITLTTTVVGLIRHRTQIRLIGQKNFGPKETIAGISVGTLGYGALLITGELTQHSINEVKLLIERFLPPWISFIAAVSVITLTTLTLADRVLLRRILHNSAIQAAHLNRMVFPGTEQPWEPERSGSPWSYEKWGAVGSQGRAVLSGGPRKDDIITVTRLSDTETHEPIRIFIGMVPGRSLSDQVDLVIHEMRRTGALRRDHIVINNSTGTGWITDWSAHTFEFLTGGNCVTISMQYSYLPSALSWYKDNDGPINAARMLIDAVLHELDQLPTGSRPKLFLAGESLGAYGLAEVWGDVEKLLGTADGVLLSGAPRFSDAMNALRTRRDASSSERLPVIDSGRHIRFAGEPEHLDMPATWQFPRMIVAQHASDPIVWWNAELFIRRPEWLKTPKQDHQDVFPRLRWMPFVTGWQVALDLFTSTSVPGGHGHNYHEEFIDYWAALLDREVTPELRHSIAYWIRANHIKR,failed
5,MVSRRGVAGLDFDNRVRSLINTFGLVSVHVQCYFIISDLCLRDSSHQGIFLVSVTRSGCLMVHDFESLYCQSKLGPGSAEDESKHVVHFSYPPGREFDVARWNPSNQNEVACTSRKHDQVLIFDISYMSPKPTEVLQTRQKLSIIGRKISRGLSDVAITSDEDSRIFSPDTLGMVHVWDRRAGVSPCIELSTDRYDSIKSIQIYVDNQTIFGAGKEGIIHIWDLRGGRNSSAFQSRKDVSLTRGELELAMAMSQLPLASLHLAPKLQKIASLKAQSEIVPKEIHSIDVNPSSPHQLAFHLDDGWSGVLDIYKSEVTHVHCPPPAWLDGSNSSADLILRKPSWLPTSSIYVVGSMSEKGIHVLDFHPSSRSPCHVDYDEDTQRNEKRDKCNHRNKFVSLSETVTGCAAHPLNGMIVAGTQNSSLLLIAQMHCSSSSETAEGEL,failed
6,MVSRSPFESFQWKSDIFNCESTDIDNFYLLLEQEMTRLGMVEKNLGEVGKYKVSLYQSPAAKSGLPSLLISAGFHGEESAGPWGLLHFLSEASADLFERVNLSLLPLVNPTGFSRGHRFNKYGENPNRGFVFENGKPKANEHTSVEGKLLLDHAQLLIAACRDGILTCHEDVLSREAYVYSFEPSQVPGRFSLDLRDTLGGYFPIAVDGEIDACPVKDGLIFNHFDTSFEACLVRSGARVGACTETPALQNFDQRVLANSAAMTHFLALCAPLCD,not failed
7,MVSSLLMSFAPATVRVYATSTKGGSGGPKEEKNPIDFVLGFMTKQDQFYETNPLLKKVDEKEGTTTGGRGTVRGGKNSAPTPVPKKSEGGFGGLGSLFKK,failed
8,MVSSVLPNPTSAECWAALLHDPMTLDMDAVLSDFVRSTGAEPGLARDLLEGKNWDLTAALSDYEQLRQVHTANLPHVFNEGRGPKQPEREPQPGHKVERPCLQRQDDIAQEKRLSRGISHASSAIVSLARSHVASECNNEQFPLEMPIYTFQLPDLSVYSEDFRSFIERDLIEQATMVALEQAGRLNWWSTVCTSCKRLLPLATTGDGNCLLHAASLGMWGFHDRDLVLRKALYTMMRTGAEREALKRRWRWQQTQQNKEEEWEREWTELLKLASSEPRTHFSKNGGTGGGVDNSEDPVYESLEEFHVFVLAHILRRPIVVVADTMLRDSGGEAFAPIPFGGIYLPLEVPPNRCHCSPLVLAYDQAHFSALVSMEQRDQQREQAVIPLTDSEHKLLPLHFAVDPGKDWEWGKDDNDNARLAHLILSLEAKLNLLHSYMNVTWIRIPSETRAPLAQPESPTASAGEDVQSLADSLDSDRDSVCSNSNSNNGKNGKDKEKEKQRKEKDKTRADSVANKLGSFSKTLGIKLKKNMGGLGGLVHGKMGRANSANGKNGDSAERGKEKKAKSRKGSKEESGASASTSPSEKTTPSPTDKAAGASPAEKGGGPRGDAWKYSTDVKLSLNILRAAMQGERKFIFAGLLLTSHRHQFHEEMIGYYLTSAQERFSAEQEQRRRDAATAAAAAAAAAAATAKRPPRRPETEGVPVPERASPGPPTQLVLKLKERPSPGPAAGRAARAAAGGTASPGGGARRASASGPVPGRSPPAPARQSVIHVQASGARDEACAPAVGALRPCATYPQQNRSLSSQSYSPARAAALRTVNTVESLARAVPGALPGAAGTAGAAEHKSQTYTNGFGALRDGLEFADADAPTARSNGECGRGGPGPVQRRCQRENCAFYGRAETEHYCSYCYREELRRRREARGARP,failed
9,MVTAAQPRSPSPSPSSTAAAGQVTRRVPAVRHLGPNWYACVMGTAIVGTAGAALPGHVAGLRAACTAVWALSLVLLVVLLTARSLHWLHHRDQARAHLLDPSAAPFYGCLSMALLAVGGGALALGRDWIGTPAAVALDTVLFTAGTVIGLAAAVAVPYLMAVRHRVEPGQASPVWLLPLVAPMVSAAVGPLLVPHLPAGQPRETLLLACVAMFGMSLFATLVTLPVVFGRLLTGGPLPLALTPSLFLVLGPLGQSTTAVGKFADVAPGVVPGPYAEGFAVFAVLYGVPVTGFALMWLALAAAHVVRARRAGMRFSMTWWSFTFPVGTCVTGAEALARETGLVVYDGLTVALYALLVAAWAVAAVHTARGLFSGVLLAGPRPAPGAPRPATARTT,failed
10,MVTAGKTLGKRMSTMRHRSCFSLFAGLALVFCLAVGTAAAGPVQVDIYGPGQGSLNLAMAAPLGPTPGTPVSGMGVKLNGFINENLSFLPFLRLVDQRAILGGTVMQGYKSPDIDLKRFQLAGADLVVTAGWPQGDASGSFVELRVYEALSGKLVFGKAYSHVEDGLLPNVADRFCSDLMKALTGRGEFFKSTLAFVKHDGKNKRDVWLVKPVGRDLRKITNLPGEALSPSWSPDGRFVVFSHFDDRSHALGVWDRLTRQVQRIRFPGNTVIGPCFLPDNKVAVSLSSGRNPDIFLLNHLFKKERELEANPSINVSPSFDATGTKMAFTSSRMGGPQVFMKDMTTGQVTRISKTGSYNTEPSISPDGTLVAFTKMTDTGHRIFVYDMVTQSERQVSFGPGRDEQPSFAPDSYFLAFTSNRNGAQQIFLVTRHGGDPKRVPTGPGDASFARWGMIPE,failed
11,MVTFVLAITAISCLIWCFLLVGWGNFWRCDQVLNFDRPSTLQAYPSVAAIIPARDEASVLGQSLPSLLEQHYPGPLKIILVDDQSSDGTGAVAQRIASGLGHGDRLEVVSGQPLPPGWSGKLWAVEQGWQTVQLKKKGSDSWPEYIFLTDADIAHGPQTITALVEKAQRDNLALVSLMVLLRCESVWEKLLIPAFIFFFQKLYPFPLVNNPQRQTAAAAGGCILMQRSALQTIGGIGALKEALIDDCTLAQKVKAQKLPIWLGLTRANWSLRPYDSLETIWQMVSRTAYTQLNYNPLLLLGTLLGMALVYLTAPIALILAIIWGNAPLALLGAFTWMLMAIAYGPTLKFYGRSWLWGLTLPLIALLYSLMTLDSAWQHWRGQGGGWKGRIYPQGS,failed
12,MVTIANDFLTVKISRHGAELTSIKDNLTGRERLWQADPAVWGRHAPVLFPIVGALADNQYHYAGKTYHMGQHGFARDRDFTVLSATPFKASFVLKDDDKTRAMYPFAFRLIITFALENNNLHVTYHVDNPDKSEPLFFSIGGHPGFKVPMTPDTQFSDYYLNFKPRKSLVQIPLVAGEGIDYTHRTLAATDANLALTHETFDHDALIFALLGKTTFNLVSDKTKHGVSVTMTDTPYLGVWSPYPTTGDFVCIEPWWGIADTIGSTGDLTRKLGINRLEPGTAFEKGYMISIFLEHHHHHH,failed
13,MVTLEYNANSKLITASDAVVALSTETNIDQINVLTTSLIGETNPNFTPQPNEALSKMIKGLFESGMKNLQQKKLNEALKNVSLAIEMAQRKRAPWEAFAIQLPELHFMLRSKIDLCLILGKHLEALQDLDFLLGTGLIQPDVFVRKADCLLKLRQWEEARATCERGLALAPEDMKLRALLIETARNLAEYNGE,failed
14,MVTNMVKLRNLRRLYCSSRLLRTIQNGRISSVSSISLSKKYTTKSAKEGEENVERKHEEEKKDTLKSSSVPTSRISRLFHYGSLAAGVGMNAAAKGISEVAKGNSPTWKSLILSDSNIDRITNKFSKMRGVALKIGQLLSFQDEKVLPKELYEILSRVQNSANHMPQRQLEKVMAKELGANWKTKFSKFDKIPMAAASIGQVHAAELPSGQRVVVKIQYPGVKESIDSDLNSLLMLLTASSLLPKGLFLDKTIANARTELKWECDYNREARALQKFEALLKDDPAFEVPHVFPEYTTDNIITATRMEGTEIMKLPKASQETKNFISENIMRLCLEEIATFKYMQTDPNWANFLYNGRTKKIELLDFGASRPFAEDFILKYRKLLTYATLRDRKGAYEMSVQLGYLTGLESQSMKDAHVDSVLTLGEPFRGDVDKSFDFKDQTVSDRIRGNIGLMLNERLCPPPEETYSLHRKFSGIFLLCARMGASVHCAKLFKEIFAYKV,failed
15,MVTPAQVARRAALWMLTSTVAFGLMAITIRLASSTIATAEIAFFRNAFGLLALLPLILRPGKPLPRTRQLPQYFARTLIGLASMLCGFWAIGHLPLSQAISLSYSTPLFVTVLAVVWLHEQVRLRRWLAVAAGFIGVLVILRPGSSTFTPGLLIALLAAVISAIVAIQIKQLSRSDDSDTVVFYTYVFWVPMSLIPALFQWTWPQGIGWVWLVATGIFGTAGQLFWTRALKLGEVSALQPISFMQLPLVALLGWWLFGEAIERHTVIGAAIIIGANVYIAHRETVLARRAATHAPVEGAKPGE,failed

# Source: a protein production outcome set (Wang et al. 2014)
